# Measurements reported in IntAct's records for PubMed 31217420.
# B1: Acid sphingomyelinase-like phosphodiesterase 3b (Homo sapiens), Q92485-2 (parent)
# chain: MRLLAWLIFLANWGGARAEPGKFWHIADLHLDPDYKVSKDPFQVCPSAGSQPVPDAGPWGDYLCDSPWALINSSIYAMKEIEPEPDFILWTGDDTPHVPDEKLGEAAVLEIVERLTKLIREVFPDTKVYAALGNHDFHPKNQFPAGSNNIYNQIAELWKPWLSNESIALFKKGAFYCEKLPGPSGAGRIVVLNTNLYYTSNALTADMADPGQQFQWLEDVLTDASKAGDMVYIVGHVPPGFFEKTQNKAWFREGFNEKYLKVVRKHHRVIAGQFFGHHHTDSFRMLYDDAGVPISAMFITPGVTPWKTTLPGVVNGANNPAIRVFEYDRATLSLKVRSPAEARGGGWEGLKCITTFPHSQLIHLPLTTEPQEG
# Variants of: B1
# Details: with INSR
row,Variant,effect of a mutation on the interaction
1,MRLLAWLIFLANWGGARAEPGKFWHIADLHLDPDYKVSKDPFQVCPSAGSQPVPDAGPWGDYLCDSPWALINSSIYAMKEIEPEPDFILWTGDDTPHVPDEKLGEAAVLEIVERLTKLIREVFPDTKVYAALGNADFHPKNQFPAGSNNIYNQIAELWKPWLSNESIALFKKGAFYCEKLPGPSGAGRIVVLNTNLYYTSNALTADMADPGQQFQWLEDVLTDASKAGDMVYIVGHVPPGFFEKTQNKAWFREGFNEKYLKVVRKHHRVIAGQFFGHHHTDSFRMLYDDAGVPISAMFITPGVTPWKTTLPGVVNGANNPAIRVFEYDRATLSLKVRSPAEARGGGWEGLKCITTFPHSQLIHLPLTTEPQEG [H135A],with no effect

# Variants of: B1
# Details: with INSR
# Remark: another data set of the same source
row,Variant,effect of a mutation on the interaction
1,MRLLAWLIFLANWGGARAEPGKFWHIADLHLDPDYKVSKDPFQVCPSAGSQPVPDAGPWGDYLCDSPWALINSSIYAMKEIEPEPDFILWTGDDTPHVPDEKLGEAAVLEIVERLTKLIREVFPDTKVYAALGNADFHPKNQFPAGSNNIYNQIAELWKPWLSNESIALFKKGAFYCEKLPGPSGAGRIVVLNTNLYYTSNALTADMADPGQQFQWLEDVLTDASKAGDMVYIVGHVPPGFFEKTQNKAWFREGFNEKYLKVVRKHHRVIAGQFFGHHHTDSFRMLYDDAGVPISAMFITPGVTPWKTTLPGVVNGANNPAIRVFEYDRATLSLKVRSPAEARGGGWEGLKCITTFPHSQLIHLPLTTEPQEG [H135A],with no effect

# Variants of: B1
# Details: with CAV1, Q03135-1
# Chain of CAV1, Q03135-1 (Q03135 whole entry): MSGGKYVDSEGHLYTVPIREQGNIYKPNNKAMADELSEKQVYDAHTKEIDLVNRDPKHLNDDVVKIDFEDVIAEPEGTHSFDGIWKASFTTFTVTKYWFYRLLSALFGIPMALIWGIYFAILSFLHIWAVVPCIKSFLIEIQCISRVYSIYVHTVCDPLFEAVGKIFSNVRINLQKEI
row,Variant,effect of a mutation on the interaction
1,MRLLAWLIFLANWGGARAEPGKFWHIADLHLDPDYKVSKDPFQVCPSAGSQPVPDAGPWGDYLCDSPWALINSSIYAMKEIEPEPDFILWTGDDTPHVPDEKLGEAAVLEIVERLTKLIREVFPDTKVYAALGNADFHPKNQFPAGSNNIYNQIAELWKPWLSNESIALFKKGAFYCEKLPGPSGAGRIVVLNTNLYYTSNALTADMADPGQQFQWLEDVLTDASKAGDMVYIVGHVPPGFFEKTQNKAWFREGFNEKYLKVVRKHHRVIAGQFFGHHHTDSFRMLYDDAGVPISAMFITPGVTPWKTTLPGVVNGANNPAIRVFEYDRATLSLKVRSPAEARGGGWEGLKCITTFPHSQLIHLPLTTEPQEG [H135A],with no effect
